Literature values as cited in publication PMC6933782 (ACS Omega, 2019).

Settings: ref 26 (Jagoda et al., 2015)

^18F-labeled RSA: ^18F-labeled rat serum albumin (RSA), literature, ref 26
retention of uptake in the heart and peripheral vasculature (PET, up to stated time postinjection): up to 2.5 h
uptake in PET: uptake in the heart and peripheral vasculature
